Assay results from paper PMC3894413.

Target: BCL-XL (UniProt Q07817)
Assay: SPR

UniProt Q07817, sequence (Q07817 whole entry): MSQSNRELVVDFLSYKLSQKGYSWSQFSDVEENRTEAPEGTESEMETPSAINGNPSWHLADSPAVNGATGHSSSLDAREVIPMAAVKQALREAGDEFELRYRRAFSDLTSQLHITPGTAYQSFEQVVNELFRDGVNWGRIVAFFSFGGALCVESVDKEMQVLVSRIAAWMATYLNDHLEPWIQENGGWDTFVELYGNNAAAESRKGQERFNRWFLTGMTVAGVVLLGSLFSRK

For NLWAAQRYGRELRRMSDEFVDSFKKG [BADS BH3 peptide], the fold higher affinity than BIMS2A BH3 for MCL-1 was 20 fold.
